The values that follow come from publication PMC10411628 (Chemical Science, 2023).

Data set [1] is described as follows: Circular dichroism of DG12. The note with it: circular dichroism spectrum. Format: physicochemical.
Data set [2] in a line: NMR titration of CP-1 with DG12. In kind it is binding. As to conditions: 1H–1H COSY, equimolar CP-1 and DG12, 20 mM, d6-DMSO, 25 °C.
In a further data set the test system is pancreatic cancer cells. As to conditions: cited from earlier work.
Data set [3] has as its target CP-1 (cyclic peptide 1). The data set is described as follows: electrochemical impedance spectroscopy.
For data set [4], the target named is CP-1 (cyclic peptide 1). Description: BLI. Background: BLI is a label-free optical method that tracks binding on a fibre tip over time.
In data set [5] the target is CP-1 (cyclic peptide 1). The data set is described as follows: nanochannel device, transmembrane ionic current and Faraday current.
The target in data set [6] is CP-1 (cyclic peptide 1). The data set is described as follows: QCM-D.

Take DVIEVYQEQTGG [DG12]: the conformation entry in data set [1] is listed as “random coil conformation”. Moreover, in data set [2], the “largest chemical shift changes upon complexation, protons of DG12” value was “H13 (isoleucine; C–H), H45 (glutamine; C–H), H51 (threonine; C–H), and H54 (glycine; N–H)”.

For `Cc1sc(C(=O)c2cncnc2N[C@@H]2C[C@H](COS(N)(=O)=O)[C@@H](O)C2)cc1[C@@H]1NCCc2ccc(Cl)cc21` [TAK-981], the “effect on SUMOylation” value with pancreatic cancer cells is “selectively reduces SUMOylation”.

Turning to DVIEVYQEQTGG [DG12, terminal dodecapeptide sequence of SUMO1], the Rct increase at 10 nM DG12 in the data set with CP-1 (cyclic peptide 1) [3] was determined as 277%. The Kd in the data set with CP-1 (cyclic peptide 1) [4] stood at 5.86 µM. The transmembrane ionic current increase ratio at 1 × 10^−6 M DG12 in the data set with CP-1 (cyclic peptide 1) [5] is 84%. This molecule yielded an adsorption amount with CP-1 (cyclic peptide 1) [6] of 142 ng cm^−2.

One may read the Kd as the constant that tells how readily two partners part at equilibrium. Lower therefore signals tighter binding.
